In data set [1] the test system is HeLa Kyoto. Kind of data set: solubility in G1/S (NP-40 vs SDS abundance) (log2 ratio); higher = more soluble. The note with it: cell cycle stage: G1/S.
Data set [2] relates to HeLa Kyoto. Kind of data set: melting temperature (median over replicates), in situ; higher = more thermally stable.
Data set [3] deals with HeLa Kyoto. Nature of the data set: solubility change mitosis vs G1/S (difference of NP-40 vs SDS log2 ratios) (log2 ratio difference); higher = more soluble in mitosis.
The subject of data set [4] is HeLa Kyoto. Nature of the data set: thermal stability score vs G1/S (z-score of summed log2 fold changes over temperatures); higher = more thermally stable than in G1/S.
Where [5] appears, read: cell cycle stage: early G1 (4.5 h after nocodazole release).

The source of these data is the supplement of paper PMC5998384.
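For melting temperature (median over replicates), in situ in this document: HeLa Kyoto cells synchronized by double thymidine or nocodazole block, proteins quantified by TMT10plex mass spectrometry, three independent biological replicates.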
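For solubility change mitosis vs G1/S (difference of NP-40 vs SDS log2 ratios) in this document: synchronized HeLa Kyoto cells (double thymidine block for G1/S, nocodazole release for mitosis), protein amounts in NP-40 versus SDS lysates quantified by mass spectrometry, three biological replicates.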
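For solubility in G1/S (NP-40 vs SDS abundance) in this document: HeLa Kyoto cells arrested at G1/S by double thymidine block, proteins quantified by TMT10plex mass spectrometry in mild NP-40 versus SDS extracts, three biological replicates.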
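For thermal stability score vs G1/S (z-score of summed log2 fold changes over temperatures) in this document: synchronized HeLa Kyoto cells, proteins quantified by TMT10plex mass spectrometry, three biological replicates, mitosis taken 0.5 h after nocodazole release, G1/S directly after double thymidine block.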

Take “MSSNCTSTTAVAVAPLSASKTKTKKKHFVCQKVKLFRASEPILSVLMWGVNHTINELSNVPVPVMLMPDDFKAYSKIKVDNHLFNKENLPSRFKFKEYCPMVFRNLRERFGIDDQDYQNSVTRSAPINSDSQGRCGTRFLTTYDRRFVIKTVSSEDVAEMHNILKKYHQFIVECHGNTLLPQFLGMYRLTVDGVETYMVVTRNVFSHRLTVHRKYDLKGSTVAREASDKEKAKDLPTFKDNDFLNEGQKLHVGEESKKNFLEKLKRDVEFLAQLKIMDYSLLVGIHDVDRAEQEEMEVEERAEDEECENDGVGGNLLCSYGTPPDSPGNLLSFPRFFGPGEFDPSVDVYAMKSHESSPKKEVYFMAIIDILTPYDTKKKAAHAAKTVKHGAGAEISTVNPEQYSKRFNEFMSNILT [PIP4K2B]”: the “solubility in G1/S (log2)” value in data set [1] was found to be 0.335. Also, the results for the melting temperature in data set [2] (cell cycle stage: G1/S) and in data set [2] (cell cycle stage: mitosis) were 50.1 °C and 49 °C, respectively. Also, the “solubility change mitosis (log2)” value in data set [3] was -0.163. The thermal stability score in data set [4] (setting [5]) is 0.758; in data set [4] (cell cycle stage: mitosis) it was -0.395.

Regarding “MAQVLRGTVTDFPGFDERADAETLRKAMKGLGTDEESILTLLTSRSNAQRQEISAAFKTLFGRDLLDDLKSELTGKFEKLIVALMKPSRLYDAYELKHALKGAGTNEKVLTEIIASRTPEELRAIKQVYEEEYGSSLEDDVVGDTSGYYQRMLVVLLQANRDPDAGIDEAQVEQDAQALFQAGELKWGTDEEKFITIFGTRSVSHLRKVFDKYMTISGFQIEETIDRETSGNLEQLLLAVVKSIRSIPAYLAETLYYAMKGAGTDDHTLIRVMVSRSEIDLFNIRKEFRKNFATSLYSMIKGDTSGDYKKALLLLCGEDD [ANXA5]”, in data set [1], the “solubility in G1/S (log2)” value worked out at 0.363. For the same substance, the melting temperature in data set [2] (cell cycle stage: G1/S) and in data set [2] (cell cycle stage: mitosis) was 49.4 °C each time. The “solubility change mitosis (log2)” value in data set [3] came to 0.0486. The thermal stability score is 5.64 in data set [4] (setting [5]) and 5.5 in data set [4] (cell cycle stage: mitosis).

For “MEHVTEGSWESLPVPLHPQVLGALRELGFPYMTPVQSATIPLFMRNKDVAAEAVTGSGKTLAFVIPILEILLRREEKLKKSQVGAIIITPTRELAIQIDEVLSHFTKHFPEFSQILWIGGRNPGEDVERFKQQGGNIIVATPGRLEDMFRRKAEGLDLASCVRSLDVLVLDEADRLLDMGFEASINTILEFLPKQRRTGLFSATQTQEVENLVRAGLRNPVRVSVKEKGVAASSAQKTPSRLENYYMVCKADEKFNQLVHFLRNHKQEKHLVFFSTCACVEYYGKALEVLVKGVKIMCIHGKMKYKRNKIFMEFRKLQSGILVCTDVMARGIDIPEVNWVLQYDPPSNASAFVHRCGRTARIGHGGSALVFLLPMEESYINFLAINQKCPLQEMKPQRNTADLLPKLKSMALADRAVFEKGMKAFVSYVQAYAKHECNLIFRLKDLDFASLARGFALLRMPKMPELRGKQFPDFVPVDVNTDTIPFKDKIREKQRQKLLEQQRREKTENEGRRKFIKNKAWSKQKAKKEKKKKMNEKRKREEGSDIEDEDMEELLNDTRLLKKLKKGKITEEEFEKGLLTTGKRTIKTVDLGISDLEDDC [DDX55]”, the “solubility in G1/S (log2)” value in data set [1] was -1.07. For the same substance, the melting temperature in data set [2] (cell cycle stage: G1/S) came out at 49.2 °C; in data set [2] (cell cycle stage: mitosis) it was 50.7 °C. Also, the “solubility change mitosis (log2)” value in data set [3] was found to be 0.392. Besides, the thermal stability score stood at 2.22 in data set [4] (setting [5]) and 3.29 in data set [4] (cell cycle stage: mitosis).

NFAT5: the “solubility in G1/S (log2)” value in data set [1] is -0.0162. Also, the melting temperature in data set [2] (cell cycle stage: G1/S) was determined as 50 °C; in data set [2] (cell cycle stage: mitosis) it was 50.6 °C. Moreover, the “solubility change mitosis (log2)” value in data set [3] is -0.176. Also, the thermal stability score in data set [4] (setting [5]) came out at 0.898; in data set [4] (cell cycle stage: mitosis), 1.21.

Take “MASNMDREMILADFQACTGIENIDEAITLLEQNNWDLVAAINGVIPQENGILQSEYGGETIPGPAFNPASHPASAPTSSSSSAFRPVMPSRQIVERQPRMLDFRVEYRDRNVDVVLEDTCTVGEIKQILENELQIPVSKMLLKGWKTGDVEDSTVLKSLHLPKNNSLYVLTPDLPPPSSSSHAGALQESLNQNFMLIITHREVQREYNLNFSGSSTIQEVKRNVYDLTSIPVRHQLWEGWPTSATDDSMCLAESGLSYPCHRLTVGRRSSPAQTREQSEEQITDVHMVSDSDGDDFEDATEFGVDDGEVFGMASSALRKSPMMPENAENEGDALLQFTAEFSSRYGDCHPVFFIGSLEAAFQEAFYVKARDRKLLAIYLHHDESVLTNVFCSQMLCAESIVSYLSQNFITWAWDLTKDSNRARFLTMCNRHFGSVVAQTIRTQKTDQFPLFLIIMGKRSSNEVLNVIQGNTTVDELMMRLMAAMEIFTAQQQEDIKDEDEREARENVKREQDEAYRLSLEADRAKREAHEREMAEQFRLEQIRKEQEEEREAIRLSLEQALPPEPKEENAEPVSKLRIRTPSGEFLERRFLASNKLQIVFDFVASKGFPWDEYKLLSTFPRRDVTQLDPNKSLLEVKLFPQETLFLEAKE [FAF1]”: in data set [1], the “solubility in G1/S (log2)” value came to 0.0926. Besides, the melting temperature is 53.6 °C in data set [2] (cell cycle stage: G1/S) and 53.5 °C in data set [2] (cell cycle stage: mitosis). Moreover, in data set [3], the “solubility change mitosis (log2)” value was -0.147. In addition, the results for the thermal stability score in data set [4] (setting [5]) and in data set [4] (cell cycle stage: mitosis) were 0.291 and 1.77, respectively.

As for “MVWKVAVFLSVALGIGAVPIDDPEDGGKHWVVIVAGSNGWYNYRHQADACHAYQIIHRNGIPDEQIVVMMYDDIAYSEDNPTPGIVINRPNGTDVYQGVPKDYTGEDVTPQNFLAVLRGDAEAVKGIGSGKVLKSGPQDHVFIYFTDHGSTGILVFPNEDLHVKDLNETIHYMYKHKMYRKMVFYIEACESGSMMNHLPDNINVYATTAANPRESSYACYYDEKRSTYLGDWYSVNWMEDSDVEDLTKETLHKQYHLVKSHTNTSHVMQYGNKTISTMKVMQFQGMKRKASSPVPLPPVTHLDLTPSPDVPLTIMKRKLMNTNDLEESRQLTEEIQRHLDARHLIEKSVRKIVSLLAASEAEVEQLLSERAPLTGHSCYPEALLHFRTHCFNWHSPTYEYALRHLYVLVNLCEKPYPLHRIKLSMDHVCLGHY [LGMN]”, in data set [1], the “solubility in G1/S (log2)” value is 0.416. The melting temperature in data set [2] (cell cycle stage: G1/S) was found to be 53.8 °C; in data set [2] (cell cycle stage: mitosis), 54.2 °C. Further, the “solubility change mitosis (log2)” value in data set [3] was -0.0973. The thermal stability score in data set [4] (setting [5]) was determined as 5.08; in data set [4] (cell cycle stage: mitosis), 5.7.
